Laboratory results taken from the nanobody polyreactivity screen of Harvey et al. (2022).

Assay: yeast display, Sf9 membrane polyspecificity reagent, FACS + sequencing; frameworks hold sequencing errors
Summary of the method: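 Galactose induction of a Saccharomyces cerevisiae BJ5465 synthetic nanobody display library ran 36–48 hours. The cells were then stained for 1 hour at 4 °C with 10% biotinylated, detergent-solubilized Sf9 membrane reagent, pulled down on streptavidin microbeads and FACS-sorted into low and high (top ~1%) gates on expression and reagent-binding fluorescence. Labels for polyreactivity follow the gate of origin.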

Sequence | polyreactivity (PSR sort gate)
QVQLVESGGGLVQAGGSLRLSCAASGSTFQPYAMGWYRQAPGKEREFVATISGSAGSTYYADSVKGRFKISRDNAKNTVYLLMNSLKPEDTAVYYCNADSGWFGYDYWGQGTQVTVSS | low polyreactivity
QVQLVESGGGLVQAGGSLRLSCAASGRTFEHYAMGWYRQAPGKERELVAAINSSDGGTYYADSVKGRFTISRDNAKNTVYLQMNSLKPEDTAVYYCAAAEFGSVPGYEMDYWGQGTQVTVSS | low polyreactivity
QVQLVESGVGLVQAGGSLRLSCAASGRTFYKNAMGWSRQSPGKERELVAAISRRGGTTYYADSVKGRFTISRDNAKNTVYLQLNSPKPEDTAVYYCAVTRLGPTIGFYYWGQGTQVTVSS | high polyreactivity
QVQLVESGGGLVQAGGSLRLSCAASGFILYYYAMGWYRQAPGKERELVAAISWSGDSTYYADSVKGRFTISRDNAKNTVYLQMNSLKPEDTAVYYCAATWQLTHRYYWGQGTQVTVSS | low polyreactivity
QVQLVESGGGLVQAGVSLRLSCAASGGTFRPYAMGWYRQERGKERELVAAISYTGSTYYADSVKWRFTISRDNAKNTVYLQMNSLKPEDTGVYYCAKDFWYPPRFDYWGQGTQVTVSS | low polyreactivity
QVQLVESGGGLVQAGGSLRLSCAASGFTYKYYAMGWYRQAPGKERELVAAITRGGDTYYADSVKGRFSISRDNAKNTVYLQMNSLKPEDTAVYYCNTASDKRAFDYWGQGTQVTVSS | low polyreactivity
QVQLVESGGGLVQAGGSLRLICAASGNTLGPYAMGWYRQAPGKERELVAAITWSGGITDYADSVKGRFTISRDNAKNTVYLQMNSLKPEDTAVYYCNAGPSLGIFQGTSVGLRYDYWGQGTQVTVSS | low polyreactivity
QVQHVESAGGLVQAGGSLRLSCAASGSTFSDYAMGRYRQAPGKERELVAAISRSGGSTYYADSVKGRFTISRDNAKNTVYLQMNSLKPEDTAVYYCAASRATLLRYGYWGQGTQVTVSS | low polyreactivity
QVQLVESGGGLVQAGGSLRLICAASGRIVEGYAMGWYRQAPGKERELDAAISSGGSTYYADSVKGRFTISRDNAKNTVYLQMNSLKPEDTAVYYCNAAHSVVSHGPGAGLEMDYWGEGTQVTVSS | low polyreactivity
QVQLVESGGGLVQAGGSLRLSCAASGFIFYYNTMGWYRQAPGKERELVASITWSGDTTYYADSVKGRFTISRDNAKNTVYLQMNSLKPEDTAVYYCAAVHYYPYRRYDYWGQGTQVTVSS | low polyreactivity
QVQLVESGGGLVQAGGSLRLSCAASGFTFRYYAMGWYRQAPGKERELVAAITNVGSTNYADSVKGRFTMSRDNAKHTVYLQMNSLKPEDTAVYYCNARDYYSYDYWGQGTQVTVST | high polyreactivity
QVQLVESGGGLVQSGGSLRLSCAASGSILKFNAMVWYRQAPGKERELVAAITRGTNTYYADSVKGRFTISRDNAKNTVYLQMNSLKPEDTAVYYCAARLPYNAIGYYYWGQGTQVTVSS | low polyreactivity
QVQLVESGGGLVQAGGSLRLSCAASGSTVYHYAMGWNRQAPGKERELVAAISFSGGRTSYADSVKGRFTISRDNAKNTVDLQMNSLKPEDTAGYYCAAKYIRFARSRDYWGHGTQVTVSS | high polyreactivity
QVQLVESGGGLVQARGSLRLSCAASGSTFYYNTMGWYRQAPGKERELVAAITSSGGRTYYADSVKGRFTISRDNAKNTVYLQMNSLKPEDTAVYYCAAKRVGSTANRRVTKYDWGQGTQVTVSS | high polyreactivity
QVQLVESGGGLVQAGGSLRLSCAASGRIFDYNAMGWYRQAPVKERELVATITTGGSTYYADSVKGRFTISRDNAKNTVYLQMYSLKPEDTAVYYCAARRWYFHYFAYGYWGQGTQVTVSS | low polyreactivity
QVQLVESGGGLVQAGGSLRLSCAASGSIFRYYAMGWYRQAPGKETEFGADISASGGSTYYADSVKGRFTISRDNAQNTVYLQMNSLKPEDNAVYYWAARYSYRRPGGYQLGSWGQGTQVTVSS | high polyreactivity
QVQLVESGGGLVQAGGSLRLSCAASGRTFWVYAMGWYRQAPGKERELVAAIRRGGITNYADSVKGRFTISRDNAKNTVYLQMNSLKPEDTAVYYCATDNYGYLTRYYYWGQGTQVTVSS | low polyreactivity
QVQLVESGGGLVQSGGSLRLSCAASGSTFSRYVMGSYRQAPGKERELVAAITNTGSTYYADSVKGRFTISRDNAKNTVYLQMNSLKPEDTAVYYCAATQYRSDGWRYDYWGQGTQVTVSS | high polyreactivity
QVQLVESGGGLVQAGGSLRLSCAASGFIFRRNAMGWYRQAPGKERELVAAITKSGGSTYYADSVKGRFTISRDNAKNTVYLQMNSLKPEDTAVYYCAASDASGGGYWGQGTQVTVSS | high polyreactivity
QVQLVESAGGLVQAGGSLRLSCAASGRIFKFYTMGWYRQAPGKERELVAAISSSDGSTHYADSVKGRFTISRDNAKNTVYLQMNSLKPEDTAVYYCAAQGGRNRGYRYYWGQGTQVTVSS | high polyreactivity
QVQLVESGGGLVQAGGSFRLSCAASGFTLYGNAMGWSRQAPGNDRELVATIRSTGSTTYADSVKGRFTISRDNAKNTVYLQMNSLKPEDTAVHYCAKVSTYGGRHRWPGSIYDYWGQGTQVTVSS | low polyreactivity
QVQLVESGGGLVQAGGSLRLSCAASGSIFKYYTMGWYRQAPGKERELVSGISYRGGSTYYADSVKGRFTISRDNAKNTVYLQMNSLKPEDTAVYYCATGSGFSPRRNTFRYGYWGQGTQVTVSS | high polyreactivity

Sequence | polyreactivity (PSR sort gate)
QVQLVESAGGLVHAGGSLRLSCADSGSTIGDNAMGWYRQAPGKEREFVASISWSGASTYYADSVKGRFTISRDNAKNTVYLQMNSLKPEDTAVYFCAVYYSYYSHLYHLLFYYWGQATQVTVSS | low polyreactivity
QVQLVESRGGLVQAGGSLRLSCAASGFILVIYAMGWYRQAPRKERELVAAITSDGSTNYADSVKGRFTISRDNAKNSVYLQMNSLKPEDTAVYYCAADAVNPLDYWGLGTQVTVSS | low polyreactivity
QVQLVESGGGLVQAGGSLRLSCAASRSIFLYYAMGWYRQAPGKERELVAAISYSGSGTYADSVKGRFTISRDNAKNTVYLQMNSLKPEDTAVSYCNVDYGSNSYDYWGQGTQVTVSS | low polyreactivity
QVQHVESGGGLVQAGGSLRLSCAASGRTFWTNALGWYRQAPGKEREFVGAISWRGASTFYADSVKGRFTISRDHAKNTVYLQMTSLKPEDTAVYDCAAQSRTRSFYGKFDSWGQGTQVTVSS | low polyreactivity
QVQLVESAGGLVQAGGRLRLSCAASGFTFVYYVMGWYRQAPGKERELVAAISNSGGSTYYADSVKGRFTISRDNAKNSVYLEMNSLKPEDTAVYYCAAPPGGGKYRGYYYWGQGTQVTVSS | high polyreactivity
QVQLVESGGGLVQAGGSLRLSCAASGRTFYDYTMGRYRQAPGKERELVAAISQRGGSTYYADSVKGRFTISRDNAKNTVYLQMNSLKPEDTAVYYCAARTSYSGNKYYYWGQGTQVTVSS | high polyreactivity
QVHRVESGGGLVQAGGSLRLSCAASGSIFSYYDLGWYRQAPGNERELVAAISWDGGDRTYADSVKGRFTISRDNAKNNVYLQMNSLKPEDSAVYYCAKNTGSYRRVNLDYWGQGTQVTVSS | low polyreactivity
QVQLVESGGGLVQAGGSLRLSCAASGRTFQRYAMVWYRQAPGKERELVPAITSRGGSTYYSDSVKGRFTISRDNAKNTVYLQMNSLKPEDTAVYYCNARSRRTLSEPQSEMDYWGQGTQVTVSS | high polyreactivity
QVQLVESGGGLVQAGGSLRLSCAASGRIFDYYAMGWYRQAPGKERELVASISRSGGSTYYADSVKGRFTISRDNAKNTVYLQMNSLKPEDTAVYYCAARRGYYYGRVGYWGQGTQVTVTS | high polyreactivity
QVQLEESGGGLVQAGGSLRLSCAASGFIFYQYAMGSYRQAPGKVRELVAAISWNGGRTYYADSVKGRFTISRDNAKNTVYLQMNSLKPEDTAVYYCAAPVLTSDYTLDSYYWGQGTQVTVSS | high polyreactivity
QVQHEESGGGLVQAGGSLRLSCAASGLTFYPYAMGWYRQATGKESELVAGISASGGGTSYADSVKGRFTISRDNAKNTVYLQMNSLKPEDTAVYYCAATPTFFVWQGYNYWGQGTQVTVSS | low polyreactivity
QDQHVESGRGLVQEGGSLRLSSPPSGRTIYEYAIGWYRQAPGKETQLVAGITTSGGSTYYAVSVKGRFTISRDNAKNTVYLQMNSLKPEDTAVYYCAKYRKSRGDNDSWGQGTQVTVSS | high polyreactivity
QVQLVESGGGLVQAGGSLRLSCAASGRIFYLYAMGWYRQAPGKERELVAAISVSGARTYYADSVKGRFTISRDNAKNTVYLHMNSLKPEDTAVYYCATVGPYRSRRAGDYWGQGTQVTVSS | high polyreactivity
QVQLVESGGGLVQAGGSLRLSCAASGGTFPWYTMGWYRQAPGKERELVAAISVSGDSTHYADSVKGRFTISRDNAKNTVYLQMNSLKPEDTAVYYCAATYLVSSDKYDYWGQGTQVTVSS | high polyreactivity
QVQLVESGGGLLQAGGSLRLSCAASGSISGYYAMGWYRQAPGKERELVASIRYTGARTYYADSVKGRFTISRDNAKNTVYLQMNSLKPEDTAVYYCAADVKRDRVWGGDYWGQGTQVTVSS | low polyreactivity
QVQLVESGGGLVQAGGSLRLSCAASGIIFYRYAMGWYRQAPGKEWELVAAITRRGGSTYYADSVKGRFTISRDNAKNTVYLQMNSLKPEDTGVYYCNARVRYTSADPSYYSWGQGTQVTVSS | high polyreactivity
QVQLQESGGGLVQAGGSLRLSCAASGYISYFVGMAWYRQAPGKEREFVASIADGSNTYYADSVKGRFTISRDNAKNTVYLQRNSLKPEDTAVFYCAVEDSWTYRFDYWGQGTLVTVSS | high polyreactivity
QVQLVESGGGLVQAGGSLRLICAASGRTFRIYAMGWYRQEPGKDRQLVAAIRWSGGTTYYADSVKGRFTISRDYAKNTVYLQMNSLKPDDTSVYYCAADSTNRFDYWGQGTQVTVSS | high polyreactivity
QVQLVESGGGLVQAGGSLRLSCAASGTFYYYAMGWYRQAPGKERDLVAGITSGGSTYYADSVKGRFTISRDNAKNTVYLQMNSLKPEDTAVYYCNTKVISRTSERRGNGFTRYDYWGQGTQVTVSS | low polyreactivity
QVQLVESGGGLVQAGGSLRLSCAASGRTLSGYVMGWYRQAPGKERELVATISNGGSTYYADSVKGRFTISRDNAKNTVYLQMNSLKPEDTAVYYCNRYWYRKHSTDPPVRYRPVGYWGQGTQVTVSS | high polyreactivity
QVQLVESGGGLVQAGGSLRLSCAASGFIIGGNPMGWYRQAPGKVRELVAAITGGGSTYYADSVKGRFTISRENAKNTVYLQMNSLKPEDTAVYYCNAGRVLRLAYNYWGQGTQVTVSS | low polyreactivity
